Data reported in PMC6778226 (Proceedings of the National Academy of Sciences of the …, 2019).
Like-named read-outs stand apart in the source and are kept apart here.

Columns and labels:
[1] = biological target: T1, voltage-dependent anion channel 1 (human, UniProt P21796 1-283, amine reactive RED-NHS NT-647 dye (for MST)); assay: MST
[2] = biological target: T1, voltage-dependent anion channel 1; assay: MST; remark: listed apart in the source

T1 sequence (P21796 whole entry): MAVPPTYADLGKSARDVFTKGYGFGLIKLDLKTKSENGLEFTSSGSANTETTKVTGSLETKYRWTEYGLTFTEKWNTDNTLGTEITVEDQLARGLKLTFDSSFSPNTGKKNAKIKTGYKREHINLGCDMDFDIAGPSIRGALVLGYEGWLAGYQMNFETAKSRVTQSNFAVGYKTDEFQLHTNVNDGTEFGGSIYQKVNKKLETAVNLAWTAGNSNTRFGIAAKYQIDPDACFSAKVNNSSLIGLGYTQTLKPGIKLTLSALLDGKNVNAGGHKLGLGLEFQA

B1: mitoNEET (natural protein, human)
chain: RFYVKDHRNKAMINLHIQKDNPKIVHAFDMEDLGDKAVYCRCWRSKKFPFCDGAHTKHNEETGDNVGPLIIKKKET
Kd [1]: 0.21 ± 0.015 µM
Kd [2]: 0.076 ± 0.002 µM
